Protein stability index data for 94 variants are collected here from the supplement of paper PMC10567573.

The labels stand for the following.
B1: FBF1 (parent)
chain: LQRASILDMRRDHEEQLQRLKLLK
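Also: lentivirally expressed fusions sorted by FACS into six bins by GFP to DsRed ratio, PSI derived from sequencing read proportions per bin multiplied by bin number.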

In this data set the parent is B1. Put plainly: protein stability index of a GFP-peptide fusion (GPS, HEK-293T) (PSI 1-6); higher = more stable. Conditions: c terminus: a fixed tail appended.
With LFRASILDMRRDHEEQLQRLKLLK, the protein stability index was found to be 3.
The value for LQRASILDMRRDHEEQLQRLELLK was 4.02; that for LQRASILDMRRDHEEQLQRLHLLK was 3.29; that for LQRASILDMRRDHEEQLQRLLLLK was 3.01.
Next, LQRASHLDMRRDHEEQLQRLKLLK: 4.19; LQRASCLDMRRDHEEQLQRLKLLK: 3.4; LQRASGLDMRRDHEEQLQRLKLLK: 4.28.
The value for LQRASFLDMRRDHEEQLQRLKLLK was 3.51; that for LQRASDLDMRRDHEEQLQRLKLLK was 4.31; that for LQRASLLDMRRDHEEQLQRLKLLK was 4.02.
On to LQRASQLDMRRDHEEQLQRLKLLK, for which the protein stability index is 4.06.
Consider LQRASPLDMRRDHEEQLQRLKLLK, for which the protein stability index is 3.94.
Regarding LQRASILDERRDHEEQLQRLKLLK, the protein stability index amounted to 3.72.
The value for LQRASILDHRRDHEEQLQRLKLLK was 3.49; that for LQRASILDTRRDHEEQLQRLKLLK was 3.94.
LQRASILDGRRDHEEQLQRLKLLK: the protein stability index was determined as 4.12.
The value for LQRASILDQRRDHEEQLQRLKLLK was 3.86; that for LQRASILDMRRDHEQQLQRLKLLK was 3.18; that for LQRASILDMRRDHECQLQRLKLLK was 2.5.
Next, LQRASILDMRRDHEPQLQRLKLLK: 3.22.
Regarding LQRASILDMRRDHEAQLQRLKLLK, the protein stability index was found to be 3.4.
Next, GQRASILDMRRDHEEQLQRLKLLK: 3.89.
Next, FQRASILDMRRDHEEQLQRLKLLK: 3.19.
With SQRASILDMRRDHEEQLQRLKLLK, the protein stability index came to 3.35.
The value for LQRASILPMRRDHEEQLQRLKLLK was 3.51; that for LQRASILMMRRDHEEQLQRLKLLK was 3.06; that for LQRASILQMRRDHEEQLQRLKLLK was 3.07.
As for LQRASILGMRRDHEEQLQRLKLLK, the protein stability index was found to be 2.76.
With LQRASILVMRRDHEEQLQRLKLLK, the protein stability index was found to be 2.33.
In the case of LQRASILEMRRDHEEQLQRLKLLK, the protein stability index came out at 3.86.
Next, LQRASILKMRRDHEEQLQRLKLLK: 2.77.
The value for LQRASIKDMRRDHEEQLQRLKLLK was 3.42; that for LQRASIADMRRDHEEQLQRLKLLK was 4.22; that for LQRASIHDMRRDHEEQLQRLKLLK was 4.1.
Next, LQRASIMDMRRDHEEQLQRLKLLK: 3.85; LQRASIGDMRRDHEEQLQRLKLLK: 4.1; LQRASIWDMRRDHEEQLQRLKLLK: 2.9.
With LQRASILDMRRDHEEQLQRLKELK, the protein stability index worked out at 4.33.
Regarding LQRASILDMRRDHEEQLQRLKWLK, the protein stability index was found to be 3.27.
LQRASILDMRRDHEEQLQRLKSLK: the protein stability index is 4.21.
Next, LQRASILDMRRDHEEQLQRLKHLK: 4.1; LQRASILDMRRDHEEQLQRLKGLK: 3.44.
The value for LQRASILDMRRDHEEQLQRLKTLK was 4.35; that for LQVASILDMRRDHEEQLQRLKLLK was 2.92.
Regarding LQRASILDMRRDHPEQLQRLKLLK, the protein stability index was 2.82.
With LQRASILDMRRDHKEQLQRLKLLK, the protein stability index was 3.43.
Next, LQRASILDMRRDHSEQLQRLKLLK: 2.95; LQRASILDMRRDHEEQLQRLKLLP: 3.55; LQRASILDMRRDHEEQLQRLKLLY: 2.81.
Turning to LQRASILDMRRDHEEQLQRLKLLH, the protein stability index stood at 3.44.
Next, LQRASILDMRRDHEEQLQRLKLLE: 3.52.
For the variant LQRASILDMRRDHEEQLQDLKLLK, the protein stability index stood at 4.26.
Next, LQRASILDMRRDHEEQLQKLKLLK: 3.14; LQRASILDMRRDHEEQLQLLKLLK: 2.22.
The value for LQRASILDMRRDHEEQLQVLKLLK was 2.48; that for LQRASILDMRRDHEEQLQNLKLLK was 3.89; that for LQRASILDMRRDHEEQRQRLKLLK was 3.54.
Next, LQRASILDMRRDHEEQDQRLKLLK: 4.23; LQRASILDMSRDHEEQLQRLKLLK: 3.9; LQRASILDMARDHEEQLQRLKLLK: 3.36.
Turning to LQRASILDMYRDHEEQLQRLKLLK, the protein stability index came to 2.59.
Next, LQRASILDMRRDHEEGLQRLKLLK: 4.09.
On to LQRASILDMRRDHEESLQRLKLLK, for which the protein stability index was 3.43.
Next, LQRASILDMRRDHEEFLQRLKLLK: 1.73; LQRASILDMRRDHEEELQRLKLLK: 3.64; LQRASILDMRRDHEELLQRLKLLK: 2.73.
Next, LQRASILDMRRDHEEILQRLKLLK: 2.28; LQRASILDMRRDHEENLQRLKLLK: 3.48; LQRADILDMRRDHEEQLQRLKLLK: 3.81.
With LQRATILDMRRDHEEQLQRLKLLK, the protein stability index amounted to 3.52.
Next, LQRACILDMRRDHEEQLQRLKLLK: 2.99; LQRASILDMRRDEEEQLQRLKLLK: 4.15.
As to LQRASILDMRDDHEEQLQRLKLLK, the protein stability index stood at 3.69.
Next, LQRASILDMRHDHEEQLQRLKLLK: 2.88; LQRASILDMRSDHEEQLQRLKLLK: 3.43; LQRASILDMRWDHEEQLQRLKLLK: 2.64.
Next, LQRASILDMRYDHEEQLQRLKLLK: 2.68; LQRASILDMRGDHEEQLQRLKLLK: 3.54; LQRASILDMREDHEEQLQRLKLLK: 3.64.
Next, LQRASILDMRIDHEEQLQRLKLLK: 2.98; LQRASILDMRRDHEEQLKRLKLLK: 3.51.
LQRASILDMRRDHEEQLPRLKLLK: the protein stability index was 3.26.
Turning to LQRKSILDMRRDHEEQLQRLKLLK, the protein stability index stood at 3.19.
Next, LQRDSILDMRRDHEEQLQRLKLLK: 3.64.
Next, LQRWSILDMRRDHEEQLQRLKLLK: 2.28; LQRGSILDMRRDHEEQLQRLKLLK: 3.17; LQRHSILDMRRDHEEQLQRLKLLK: 3.73.
The value for LQRQSILDMRRDHEEQLQRLKLLK was 3.7; that for LQRYSILDMRRDHEEQLQRLKLLK was 2.96.
In the case of LQRTSILDMRRDHEEQLQRLKLLK, the protein stability index was found to be 3.6.
Next, LQRASILDMRRSHEEQLQRLKLLK: 3.31.
Next, LQRASILDMRRWHEEQLQRLKLLK: 2.34.
With LQRASILDMRRDHEEQLQRMKLLK, the protein stability index was determined as 4.
The value for LQRASILDMRRDHEEQLQRRKLLK was 4.13.
